3 proteins from PMC2724291 (Nucleic Acids Research, 2009) can be followed below.

Data set [1] deals with the molecule itself. Put plainly: SEC. (In gel filtration, larger molecules generally elute earlier.)
Data set [2] concerns the molecule itself. Put plainly: SEC. This is another data set of the same source.

Where two headings read alike, the source gives them in different places.

B1: hMBP-γ (H1 and H2 of the putative coiled-coil motif of ϕC31 Int fused to histidine-tagged maltose-binding protein) (domain or fragment, phage ϕC31, UniProt Q9T221 445-524, looked up)
chain: GKLTEAPEKSGERANLVAERADALNALEELYEDRAAGAYDGPVGRKHFRKQQAALTLRQQGAEERLAELEAAEAPKLPLD
As to B1, the stoichiometry N – broadly, a count of units in the complex or per binding partner – in data set [1] was 2.

B2: hMBP-γ^E449K (domain or fragment, phage ϕC31, UniProt Q9T221 445-524, looked up)
chain: GKLTKAPEKSGERANLVAERADALNALEELYEDRAAGAYDGPVGRKHFRKQQAALTLRQQGAEERLAELEAAEAPKLPLD
As for B2, in data set [1], the binding result is on record as “binds”.

B3: wild-type ϕC31 integrase (Int) (enzyme, phage ϕC31, UniProt Q9T221 1-605, looked up)
chain: MDTYAGAYDRQSRERENSSAASPATQRSANEDKAADLQREVERDGGRFRFVGHFSEAPGTSAFGTAERPEFERILNECRAGRLNMIIVYDVSRFSRLKVMDAIPIVSELLALGVTIVSTQEGVFRQGNVMDLIHLIMRLDASHKESSLKSAKILDTKNLQRELGGYVGGKAPYGFELVSETKEITRNGRMVNVVINKLAHSTTPLTGPFEFEPDVIRWWWREIKTHKHLPFKPGSQAAIHPGSITGLCKRMDADAVPTRGETIGKKTASSAWDPATVMRILRDPRIAGFAAEVIYKKKPDGTPTTKIEGYRIQRDPITLRPVELDCGPIIEPAEWYELQAWLDGRGRGKGLSRGQAILSAMDKLYCECGAVMTSKRGEESIKDSYRCRRRKVVDPSAPGQHEGTCNVSMAALDKFVAERIFNKIRHAEGDEETLALLWEAARRFGKLTEAPEKSGERANLVAERADALNALEELYEDRAAGAYDGPVGRKHFRKQQAALTLRQQGAEERLAELEAAEAPKLPLDQWFPEDADADPTGPKSWWGRASVDDKRVFVGLFVDKIVVTKSTTGRGQGTPIEKRASITWAKPPTDDDEDDAQDGTEDVAA
Turning to B3, the binding result in data set [2] is on record as “binds”.
